This assay has as its system young fibroblasts. As to the kind of experiment: Addition of aging factor proteins to young fibroblasts, quantitative RT-PCR. It is filed as cell-based. Conditions: protein added at 10 μg/ml vs 0 μg/ml, cultured 2 days. The method, then:
Dermal fibroblasts collected from the back skin of an adult were cultured in Dulbecco's Modified Eagle Medium supplemented with 10% FBS. As normal fibroblasts (young fibroblasts), cells with a culture period of less than 1 month and a Pdl<30 were used. The same cells were cultured for 3 months or more and slowly proliferating cells (having a doubling time of less than 0.5/week and a Pdl>50) were used as the senescent fibroblasts. Normal fibroblasts were seeded in the upper layer of a six-well Transwell system (Falcon; Franklin Lakes, N.J.) filled with Dulbecco's Modified Eagle Medium supplemented with 10% FBS to a density of 1250 cells/cm^2. Sub-constructed senescent fibroblasts and normal fibroblasts were each seeded in two wells of the lower layer of the Transwell system. After combining the upper layer and the lower layer of the Transwell system for 2 days under a humidified atmosphere at 37° C. and 5% CO2, the cells in the upper layer and the cells in the lower layer were recovered using Qiazole (Qiagen).
From the recovered cell lysate, RNA was extracted using an RNeasy Protect Kit (Qiagen) according to the product description and […] into cDNA using Superscript VILO (Invitrogen) according to the product description. Real time PCR was performed on LightCycler (Roche) using […] as an internal standard and using primer pairs for the following genes. The cycle threshold (Ct value) calculated using Lightcycler software ver. 3.5 was normalized for each sample GAPDH mRNA.
Proteins of the candidate aging factors (IGFBP 7 and RSPO 4) (purchased from Serotec, R&D SYSTEMS) were added to a medium for culturing young fibroblasts at concentrations of 0 μg/ml and 10 μg/ml, cultured for 2 days, and the cells were collected using Qiazole (Qiagen). The recovered cell lysate was examined for the expression levels of MMP1 and collagen in the same manner as described above for quantitative RT-PCR. IGFBP7 and RSPO4 reduced the expression of collagen and increased the expression of MMP1.

Results on two molecules are retold here after US20200164014A1, “MESENCHYMAL STEM CELL ATTRACTING AGENT” (Shiseido Company, Ltd., priority 2017, published 2020).

B1: IGFBP7: insulin-like growth factor binding protein 7, purchased protein, candidate aging factor (protein, UniProt Q16270 27-282, looked up)
Insulin-like growth …: SSSDTCGPCEPASCPPLPPLGCLLGETRDACGCCPMCARGEGEPCGGGGAGRGYCAPGMECVKSRKRRKGKAGAAAGGPGVSGVCVCKSRYPVCGSDGTTYPSGCQLRAASQRAESRGEKAITQVSKGTCEQGPSIVTPPKDIWNVTGAQVYLSCEVIGIPTPVLIWNKVKRGHYGVQRTELLPGDRDNLAIQTRGGPEKHEVTGWVLVSPLSKEDAGEYECHASNSQGQASASAKITVVDALHEIPVKKGEGAEL
With B1, the “expression of MMP1” value is “increased” and the expression of collagen entry is listed as “reduced”.

B2: RSPO4: R-spondin family, member 4, purchased protein, candidate aging factor (protein, UniProt Q2I0M5 20-234, looked up)
R-spondin-4: LNRRKKQVGTGLGGNCTGCIICSEENGCSTCQQRLFLFIRREGIRQYGKCLHDCPPGYFGIRGQEVNRCKKCGATCESCFSQDFCIRCKRQFYLYKGKCLPTCPPGTLAHQNTRECQGECELGPWGGWSPCTHNGKTCGSAWGLESRVREAGRAGHEEAATCQVLSESRKCPIQRPCPGERSPGQKKGRKDRRPRKDRKLDRRLDVRPRQPGLQP
For the molecule B2, the “expression of MMP1” value was “increased” and the expression of collagen result was “reduced”.
